# B1: full-length NATA2 (enzyme, Arabidopsis thaliana, UniProt Q9ZV06 1-236, looked up)
# chain: MAAAAPPPPPTAAPEPNMVAPLISPIGHPMFSRIRLATPSDVPFIHKLIHQMAVFERLTHLFSATESGLASTLFTSRPFQSFTVFLLEVSRSPFPATITSSPSPDFTPFFKTHNLDLPIDDPESYNFSPDMLNDVVVAGFVLFFPNYSSFLSKPGFYIEDIFVREPYRRKGFGSMLLTAVAKQAVKMGYGRVEWVVLDWNVNAIKFYEQMGAQILQEWRVCRLTGDALEAFDQVNI
# B2: N-terminally truncated NATA1 (19-228, NATA1Δ) (enzyme, Arabidopsis thaliana, UniProt Q9ZV05 19-228, looked up)
# chain: TGHRMFSRIRLATPTDVPFIHKLIHQMAVFERLTHLFVATESGLASTLFNSRPFQAVTVFLLEISPSPFPTTHDASSPDFTPFLETHKVDLPIEDPDREKFLPDKLNDVVVAGFVLFFPNYPSFLAKQGFYIEDIFMREPYRRKGFGKLLLTAVAKQAVKLGVGRVEWIVIDWNVNAINFYEQMGAQVFKEWRLCRLTGDALQAIDKLNI
# B3: N-terminally truncated NATA2 (30-236, NATA2Δ) (enzyme, Arabidopsis thaliana, UniProt Q9ZV06 30-236, looked up)
# chain: MFSRIRLATPSDVPFIHKLIHQMAVFERLTHLFSATESGLASTLFTSRPFQSFTVFLLEVSRSPFPATITSSPSPDFTPFFKTHNLDLPIDDPESYNFSPDMLNDVVVAGFVLFFPNYSSFLSKPGFYIEDIFVREPYRRKGFGSMLLTAVAKQAVKMGYGRVEWVVLDWNVNAIKFYEQMGAQILQEWRVCRLTGDALEAFDQVNI
# Target: the molecule itself
# Assay: crystal structure
row,Protein,stoichiometry N
1,B1,2
2,B2,2
3,B3,2

# From article doi:10.1101/2024.03.04.583282 (bioRxiv, 2024)
